Target: fhl2_human FHL2 (UniProt Q14192)
Sequence (Q14192 whole entry): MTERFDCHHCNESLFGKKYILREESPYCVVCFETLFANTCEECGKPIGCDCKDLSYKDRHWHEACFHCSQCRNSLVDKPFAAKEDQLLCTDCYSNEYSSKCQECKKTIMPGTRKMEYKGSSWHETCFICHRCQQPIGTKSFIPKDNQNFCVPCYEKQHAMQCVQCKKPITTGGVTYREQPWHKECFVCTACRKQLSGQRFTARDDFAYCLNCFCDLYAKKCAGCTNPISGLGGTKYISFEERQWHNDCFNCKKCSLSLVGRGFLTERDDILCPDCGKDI

Presenilin-2 (Homo sapiens), P49810 V278A, sequence (P49810 whole entry V278A): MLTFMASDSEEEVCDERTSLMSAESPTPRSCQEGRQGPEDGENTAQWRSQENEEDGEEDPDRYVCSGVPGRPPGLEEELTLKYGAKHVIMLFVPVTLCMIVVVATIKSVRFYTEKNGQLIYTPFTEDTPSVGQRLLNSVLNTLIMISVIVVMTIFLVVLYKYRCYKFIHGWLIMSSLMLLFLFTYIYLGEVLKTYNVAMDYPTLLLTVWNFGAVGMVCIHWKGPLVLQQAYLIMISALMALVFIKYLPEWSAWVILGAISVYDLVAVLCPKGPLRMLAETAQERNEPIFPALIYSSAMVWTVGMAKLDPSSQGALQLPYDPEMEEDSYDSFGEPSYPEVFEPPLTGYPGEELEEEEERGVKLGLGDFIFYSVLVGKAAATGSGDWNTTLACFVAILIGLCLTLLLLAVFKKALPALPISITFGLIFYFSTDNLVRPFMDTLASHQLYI
Presenilin-2 (Homo sapiens), P49810 P270A, sequence (P49810 whole entry P270A): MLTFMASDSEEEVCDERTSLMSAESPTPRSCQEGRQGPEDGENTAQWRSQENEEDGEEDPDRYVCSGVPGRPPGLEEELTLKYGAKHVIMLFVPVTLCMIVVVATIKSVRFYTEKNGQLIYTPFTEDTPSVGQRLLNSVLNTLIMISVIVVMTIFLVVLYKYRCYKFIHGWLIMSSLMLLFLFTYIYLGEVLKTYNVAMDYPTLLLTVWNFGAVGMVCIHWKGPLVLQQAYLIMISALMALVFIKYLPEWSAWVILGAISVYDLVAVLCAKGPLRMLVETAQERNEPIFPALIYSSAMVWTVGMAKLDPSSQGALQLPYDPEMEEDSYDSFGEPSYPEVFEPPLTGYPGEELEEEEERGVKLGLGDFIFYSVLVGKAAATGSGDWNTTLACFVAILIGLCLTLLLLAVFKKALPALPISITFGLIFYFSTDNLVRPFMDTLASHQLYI
Presenilin-2 (Homo sapiens), P49810 E279A, sequence (P49810 whole entry E279A): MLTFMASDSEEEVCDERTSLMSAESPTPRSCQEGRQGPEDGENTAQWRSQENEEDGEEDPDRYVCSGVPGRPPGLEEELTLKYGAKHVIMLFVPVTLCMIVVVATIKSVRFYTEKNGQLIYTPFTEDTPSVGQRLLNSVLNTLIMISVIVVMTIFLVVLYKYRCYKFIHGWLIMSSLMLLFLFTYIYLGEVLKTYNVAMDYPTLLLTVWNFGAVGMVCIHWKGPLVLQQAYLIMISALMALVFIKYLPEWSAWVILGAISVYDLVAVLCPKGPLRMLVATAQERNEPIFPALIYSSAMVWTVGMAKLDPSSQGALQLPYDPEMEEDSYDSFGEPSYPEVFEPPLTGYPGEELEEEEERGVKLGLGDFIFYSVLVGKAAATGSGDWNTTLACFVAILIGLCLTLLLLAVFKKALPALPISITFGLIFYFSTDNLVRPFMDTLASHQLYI
Presenilin-2 (Homo sapiens), P49810 R275A, sequence (P49810 whole entry R275A): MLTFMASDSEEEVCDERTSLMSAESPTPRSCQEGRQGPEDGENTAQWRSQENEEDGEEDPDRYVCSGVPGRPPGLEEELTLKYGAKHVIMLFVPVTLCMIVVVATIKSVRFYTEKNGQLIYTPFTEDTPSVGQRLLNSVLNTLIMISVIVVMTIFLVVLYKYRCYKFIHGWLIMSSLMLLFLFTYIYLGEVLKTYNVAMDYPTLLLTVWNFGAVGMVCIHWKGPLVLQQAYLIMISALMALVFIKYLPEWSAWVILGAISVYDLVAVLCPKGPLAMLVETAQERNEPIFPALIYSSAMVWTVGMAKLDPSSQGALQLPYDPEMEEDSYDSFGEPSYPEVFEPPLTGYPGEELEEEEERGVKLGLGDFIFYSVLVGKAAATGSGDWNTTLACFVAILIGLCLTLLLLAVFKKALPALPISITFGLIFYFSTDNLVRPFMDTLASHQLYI
Presenilin-2 (Homo sapiens), P49810 L277A, sequence (P49810 whole entry L277A): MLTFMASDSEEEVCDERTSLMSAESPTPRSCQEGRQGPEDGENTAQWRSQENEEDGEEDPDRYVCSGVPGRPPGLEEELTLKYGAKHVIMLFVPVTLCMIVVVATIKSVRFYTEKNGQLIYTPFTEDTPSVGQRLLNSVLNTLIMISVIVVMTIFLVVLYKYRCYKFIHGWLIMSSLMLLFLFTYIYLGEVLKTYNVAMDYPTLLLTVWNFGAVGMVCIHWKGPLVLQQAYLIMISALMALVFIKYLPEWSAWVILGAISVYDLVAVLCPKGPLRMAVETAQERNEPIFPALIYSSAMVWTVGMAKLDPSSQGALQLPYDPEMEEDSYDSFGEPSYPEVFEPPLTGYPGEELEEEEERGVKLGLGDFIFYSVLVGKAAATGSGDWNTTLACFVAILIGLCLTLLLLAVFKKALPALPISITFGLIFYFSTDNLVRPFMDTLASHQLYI
Presenilin-2 (Homo sapiens), P49810 M276A, sequence (P49810 whole entry M276A): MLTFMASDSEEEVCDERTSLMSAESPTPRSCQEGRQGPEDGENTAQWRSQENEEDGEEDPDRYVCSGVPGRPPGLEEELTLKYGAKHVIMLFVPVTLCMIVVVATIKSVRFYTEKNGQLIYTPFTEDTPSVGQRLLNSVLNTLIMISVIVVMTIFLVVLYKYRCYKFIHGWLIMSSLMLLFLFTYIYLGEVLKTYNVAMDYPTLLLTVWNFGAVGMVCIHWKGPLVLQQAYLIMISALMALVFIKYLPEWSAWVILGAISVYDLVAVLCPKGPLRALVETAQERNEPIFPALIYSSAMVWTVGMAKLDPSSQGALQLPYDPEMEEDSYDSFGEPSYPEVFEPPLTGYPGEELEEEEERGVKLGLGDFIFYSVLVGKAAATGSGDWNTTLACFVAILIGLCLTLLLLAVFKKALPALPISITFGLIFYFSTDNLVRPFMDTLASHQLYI
Presenilin-2 (Homo sapiens), P49810 K271A, sequence (P49810 whole entry K271A): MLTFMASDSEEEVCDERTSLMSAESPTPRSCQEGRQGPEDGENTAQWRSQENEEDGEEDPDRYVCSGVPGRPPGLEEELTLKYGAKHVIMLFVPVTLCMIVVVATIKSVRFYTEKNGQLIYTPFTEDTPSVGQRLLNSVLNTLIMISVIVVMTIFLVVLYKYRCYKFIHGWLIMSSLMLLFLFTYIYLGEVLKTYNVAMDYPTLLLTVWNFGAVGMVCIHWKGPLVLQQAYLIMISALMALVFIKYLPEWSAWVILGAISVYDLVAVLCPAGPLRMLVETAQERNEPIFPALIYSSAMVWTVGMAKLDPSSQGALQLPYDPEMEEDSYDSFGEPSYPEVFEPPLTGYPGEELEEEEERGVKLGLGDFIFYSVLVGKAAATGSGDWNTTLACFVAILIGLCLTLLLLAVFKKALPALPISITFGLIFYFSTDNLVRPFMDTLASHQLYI
Presenilin-2 (Homo sapiens), P49810 P273A, sequence (P49810 whole entry P273A): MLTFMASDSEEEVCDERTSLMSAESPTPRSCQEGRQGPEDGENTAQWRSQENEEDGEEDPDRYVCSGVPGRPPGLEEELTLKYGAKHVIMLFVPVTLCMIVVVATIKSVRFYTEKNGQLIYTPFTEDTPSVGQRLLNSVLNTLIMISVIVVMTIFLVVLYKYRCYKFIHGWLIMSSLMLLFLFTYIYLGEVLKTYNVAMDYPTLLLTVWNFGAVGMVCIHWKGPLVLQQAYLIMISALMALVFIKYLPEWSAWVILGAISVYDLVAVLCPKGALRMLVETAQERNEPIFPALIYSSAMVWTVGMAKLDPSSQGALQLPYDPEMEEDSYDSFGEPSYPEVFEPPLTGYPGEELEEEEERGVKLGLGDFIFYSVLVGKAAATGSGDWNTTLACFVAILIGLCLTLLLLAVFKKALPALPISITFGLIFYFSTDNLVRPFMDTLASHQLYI
Presenilin-2 (Homo sapiens), P49810 G272A, sequence (P49810 whole entry G272A): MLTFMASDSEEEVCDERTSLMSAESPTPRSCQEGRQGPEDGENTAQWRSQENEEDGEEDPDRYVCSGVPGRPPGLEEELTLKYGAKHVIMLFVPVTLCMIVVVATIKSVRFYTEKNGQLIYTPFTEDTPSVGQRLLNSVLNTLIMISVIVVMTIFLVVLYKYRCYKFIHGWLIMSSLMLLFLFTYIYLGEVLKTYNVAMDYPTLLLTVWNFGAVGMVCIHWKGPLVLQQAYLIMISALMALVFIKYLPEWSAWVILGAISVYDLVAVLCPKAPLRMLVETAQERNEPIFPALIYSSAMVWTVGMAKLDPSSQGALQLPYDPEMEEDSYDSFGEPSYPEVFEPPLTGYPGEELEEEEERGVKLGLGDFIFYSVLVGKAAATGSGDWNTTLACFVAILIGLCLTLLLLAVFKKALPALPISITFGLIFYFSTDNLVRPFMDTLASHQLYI
Presenilin-2 (Homo sapiens), P49810 L274A, sequence (P49810 whole entry L274A): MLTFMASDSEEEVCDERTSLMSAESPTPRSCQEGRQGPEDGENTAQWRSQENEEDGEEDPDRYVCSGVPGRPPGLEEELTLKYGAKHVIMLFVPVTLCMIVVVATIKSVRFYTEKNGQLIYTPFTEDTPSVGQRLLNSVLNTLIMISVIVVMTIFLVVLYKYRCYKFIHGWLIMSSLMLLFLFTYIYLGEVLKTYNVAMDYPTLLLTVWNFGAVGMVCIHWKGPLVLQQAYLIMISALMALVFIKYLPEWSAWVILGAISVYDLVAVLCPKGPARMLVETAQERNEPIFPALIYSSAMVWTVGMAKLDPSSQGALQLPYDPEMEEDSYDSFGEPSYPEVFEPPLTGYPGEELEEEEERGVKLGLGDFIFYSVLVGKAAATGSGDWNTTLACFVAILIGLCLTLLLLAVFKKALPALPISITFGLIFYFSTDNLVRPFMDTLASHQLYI

effect of a mutation on the interaction	Substance
decreasing interaction strength	Presenilin-2 (Homo sapiens), P49810 P270A
decreasing interaction strength	Presenilin-2 (Homo sapiens), P49810 P273A
disrupting interaction strength	Presenilin-2 (Homo sapiens), P49810 R275A
decreasing interaction strength	Presenilin-2 (Homo sapiens), P49810 L277A
with no effect	Presenilin-2 (Homo sapiens), P49810 K271A
decreasing interaction strength	Presenilin-2 (Homo sapiens), P49810 M276A
decreasing interaction strength	Presenilin-2 (Homo sapiens), P49810 V278A
decreasing interaction strength	Presenilin-2 (Homo sapiens), P49810 G272A
decreasing interaction strength	Presenilin-2 (Homo sapiens), P49810 L274A
decreasing interaction strength	Presenilin-2 (Homo sapiens), P49810 E279A
